Target: T1, human vascular endothelial growth factor receptor-2 Fc chimera (KDR-Fc) (human, UniProt P35968 20-764)
T1 construct: range 1-764; also called human VEGFR-2; not shown: human IgG1 Fc
Test: radioactive equilibrium binding, 1 nM KDR-Fc, % of input
Description: To prepare ³⁵S-labeled binding proteins for analysis, mRNA was prepared as described above for RNA-protein fusion production but the linker ligation step was omitted. The mRNA was expressed using rabbit reticulocyte lysate translation kit (Ambion) in the presence of ³⁵S-labeled Met at 30° C. for 1 hour. Expressed protein was purified on M2-agarose Flag beads (Sigma) as described above. This procedure produced the encoded protein without the nucleic acid tail. In a direct binding assay, VEGF-R2-Fc fusions in concentrations ranging from 0 to 200 nM were added to a constant concentration of the purified protein (0.2 or 0.5 nM) and incubated at 30° C. for 1 hour in buffer B. The receptor-binder complexes were captured using Protein A magnetic beads for another 10 minutes at room temperature using a Kingfisher™ The beads were washed with six reaction volumes of buffer B. The protein was eluted from the beads with 100 μL of 0.1 M KOH. 50 μL of the reaction mixture and elution were dried onto a LumaPlate-96 (Packard) and the amount of ³⁵S on the plate was measured using a TopCount NXT instrument (Packard). The amount of fibronectin-based scaffold protein bound to the target was estimated as a percent of radioactivity eluted from Protein A magnetic beads compare to radioactivity in the reaction mixture. Nonspecific binding of fibronectin-based scaffold proteins to the beads was determined by measuring binding in the absence of KDR-Fc and represented less than 1-2% of the input. Specific binding was obtained through subtraction of nonspecific binding from total binding. Data was analyzed using the GraphPad Prizm software (GraphPad Software, Inc, San Diego, Calif.), fitted using a one site, non-linear binding equation.

T1 sequence (P35968 20-764 limits assumed, change not shown, form in doubt): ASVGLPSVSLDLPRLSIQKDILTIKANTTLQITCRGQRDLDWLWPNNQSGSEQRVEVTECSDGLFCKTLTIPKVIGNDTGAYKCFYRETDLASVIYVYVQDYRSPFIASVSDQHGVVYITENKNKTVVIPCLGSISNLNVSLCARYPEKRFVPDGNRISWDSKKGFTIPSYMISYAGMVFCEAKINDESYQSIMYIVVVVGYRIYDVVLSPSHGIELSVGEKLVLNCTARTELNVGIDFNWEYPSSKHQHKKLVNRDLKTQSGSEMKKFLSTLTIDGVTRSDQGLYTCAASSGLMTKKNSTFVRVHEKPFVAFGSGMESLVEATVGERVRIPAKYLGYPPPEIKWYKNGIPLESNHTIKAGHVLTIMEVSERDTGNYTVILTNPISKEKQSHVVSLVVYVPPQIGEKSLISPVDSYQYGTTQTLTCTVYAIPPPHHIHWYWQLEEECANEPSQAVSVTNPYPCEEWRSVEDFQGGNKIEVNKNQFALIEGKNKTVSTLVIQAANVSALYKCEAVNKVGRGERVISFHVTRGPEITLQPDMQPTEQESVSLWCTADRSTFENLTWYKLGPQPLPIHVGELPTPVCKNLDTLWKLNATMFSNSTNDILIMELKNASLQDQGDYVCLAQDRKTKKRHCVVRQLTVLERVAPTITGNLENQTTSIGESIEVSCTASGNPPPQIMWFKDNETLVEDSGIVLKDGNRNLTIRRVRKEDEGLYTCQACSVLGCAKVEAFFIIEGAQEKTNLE

Binder | Binding to 1 nM KDR, % [%]
1′DelE2 PR4 (designed binder) EVVAATPTSLLISWRHPHFPTRYYRITYGETGGNSPVQEFTVPLQPPTATISGLKPGVDYTITVYAVTVGQNDHELLTPISINYRT | 16
1′Del G10 PR4 (designed binder) EVVAATPTSLLISWRHPHFPTRYYRITYGETGGNSPVQEFTVPLQPPTATISGLKPGVDYTITVYAVTMAQNGHKLMTPISINYRT | 36
1′DelA1 PR4 (designed binder) EVVAATPTSLLISWRHPHFPTRYYRITYGETGGNSPVQEFTVPLQPPTATISGLKPGVDYTITVYAVTVAQNDHELLTPISINYRT | 14
1′DelA2 PR4 (designed binder) EVVAATPTSLLISWRHPHFPTRYYRITYGETGGNSPVQEFTVPLQPPTATISGLKPGVDYTITVYAVTVAQNGHQLFTPISINYRT | 23
1′DelD1 PR4 (designed binder) EVVAATPTSLLISWRHPHFPTRYYRITYGETGGNSPVQEFTVPLQPPTATISGLKPGVDYTITVYAVTVTQNDHELLTPISINYRT | 16
1′DelD2 PR4 (designed binder) EVVAATPTSLLISWRHPHFPTRYYRITYGETGGNSPVQEFTVPLQPPTATISGLKPGVDYTITVYAVTVAKNDHELLTPISINYRT | 17
1′DelD5 PR4 (designed binder) EVVAATPTSLLISWRHPHFPTRYYRITYGETGGNSPVQEFTVPLQPPTATISGLKPGVDYTITVYAVTVGQNHHELFTPISINYRT | 17
1′DelE6 PR4 (designed binder) EVVAATPTSLLISWRHPHFPTRYYRITYGETGGNSPVQEFTVPLQPPTATISGLKPGVDYTITVYAVTLAQNDRELLTPISINYRT | 24
1′DelE7 PR4 (designed binder) EVVAATPTSLLISWRHPHFPTRYYRITYGETGGNSPVQEFTVPLQPPTATISGLKPGVDYTITVYAVTVAQNGHELFTPISINYRT | 22
1′DelF3 PR4 (designed binder) EVVAATPTSLLISWRHPHFPTRYYRITYGETGGNSPVQEFTVPLQPPTATISGLKPGVDYTITVYAVTMAQNDHKLFTPISINYRT | 16
1′DelH5 PR4 (designed binder) EVVAATPTSLLISWRHPHFPTRYYRITYGETGGNSPVQEFTVPLQPPTATISGLKPGVDYTITVYAVTVAQNDRELFTPISINYRT | 17
1′DelH10 PR4 (designed binder) EVVAATPTSLLISWRHPHFPTRYYRITYGETGGNSPVQEFTVPLQPPTATISGLKPGVDYTITVYAVTFAQNDHELLTPISINYRT | 17
1′DelH12 PR4 (designed binder) EVVAATPTSLLISWRHPHFPTRYYRITYGETGGNSPVQEFTVPLQPPTATISGLKPGVDYTITVYAVTVAQNERELFTPISINYRT | 18
2′Del A2 PR4 (designed binder) EVVAATPTSLLISWRHPHFPTRYYRITYGETGGNSPVQEFTVPLQPPTATISGLKPGVDYTITVYAVTGGRNGHTLLTPISINYRT | 17
2′Del A11 PR4 (designed binder) EVVAATPTSLLISWRHPHFPTRYYRITYGETGGNSPVQEFTVPLQPPTATISGLKPGVDYTITVYAVTEDIRVLWLNTTISINYRT | 16
2′Del B2 PR4 (designed binder) EVVAATPTSLLISWRHPHFPTRYYRITYGETGGNSPVQEFTVPLQPPTATISGLKPGVDYTITVYAVTTGWNGNELFTPISINYRT | 29
2′Del B3 PR4 (designed binder) EVVAATPTSLLISWRHPHFPTRYYRITYGETGGNSPVQEFTVPLQPPTATISGLKPGVDYTITVYAVTDAPNGRELMVPISINYRT | 17
2′Del B4 PR4 (designed binder) EVVAATPTSLLISWRHPHFPTRYYRITYGETGGNSPVQEFTVPLQPPTATISGLKPGVDYTITVYAVTSGHNGHEVMTPISINYRT | 31
2′Del B5 PR4 (designed binder) EVVAATPTSLLISWRHPHFPTRYYRITYGETGGNSPVQEFTVPLQPPTATISGLKPGVDYTITVYAVTAGRHDHELIIPISINYRT | 33
2′Del C1 PR4 (designed binder) EVVAATPTSLLISWRHPHFPTRYYRITYGETGGNSPVQEFTVPLQPPTATISGLKPGVDYTITVYAVTAGLDEHELLIPISINYRT | 32
2′Del C5 PR4 (designed binder) EVVAATPTSLLISWRHPHFPTRYYRITYGETGGNSPVQEFTVPLQPPTATISGLKPGVDYTITVYAVTPGHNDHELMVPISINYRT | 26
2′Del C6 PR4 (designed binder) EVVAATPTSLLISWRHPHFPTRYYRITYGETGGNSPVQEFTVPLQPPTATISGLKPGVDYTITVYAVTMGFMAHELMVPISINYRT | 34
2′Del C8 PR4 (designed binder) EVVAATPTSLLISWRHPHFPTRYYRITYGETGGNSPVQEFTVPLQPPTATISGLKPGVDYTITVYAVTTAHNGHELLTPISINYRT | 15
2′Del C11 PR4 (designed binder) EVVAATPTSLLISWRHPHFPTRYYRITYGETGGNSPVQEFTVPLQPPTATISGLKPGVDYTITVYAVTAGLNEHELLIPISINYRT | 34
2′Del D1 PR4 (designed binder) EVVAATPTSLLISWRHPHFPTRYYRITYGETGGNSPVQEFTVPLQPPTATISGLKPGVDYTITVYAVTLEQNDRVLLTPISINYRT | 28
2′Del D3 PR4 (designed binder) EVVAATPTSLLISWRHPHFPTRYYRITYGETGGNSPVQEFTVPLQPPTATISGLKPGVDYTITVYAVTSGLNDRVLFIPISINYRT | 38
2′Del D5 PR4 (designed binder) EVVAATPTSLLISWRHPHFPTRYYRITYGETGGNSPVQEFTVPLQPPTATISGLKPGVDYTITVYAVTVAWNDHMLMTPISINYRT | 18
2′Del D10 PR4 (designed binder) EVVAATPTSLLISWRHPHFPTRYYRITYGETGGNSPVQEFTVPLQPPTATISGLKPGVDYTITVYAVTLADNARELLTPISINYRT | 34
2′Del E3 PR4 (designed binder) EVVAATPTSLLISWRHPHFPTRYYRITYGETGGNSPVQEFTVPLQPPTATISGLKPGVDYTITVYAVTLGPYEHELLTPISINYRT | 33
